First the molecules themselves.
B1: FAB protein (FABP from bovine hearts) with N-terminal 15-amino-acid peptide motif 3 and C-terminal His-tag of 6 histidines (other)
chain: DVEAWLDERVPLVETFVGTWKLVDSKNFDDYMKSLGVGFATRQVGNMTKPTTIIEVNGDTVIIKTQSTFKNTEISFKLGVEFDETTADDRKVKSIVTLDGGKLVHVQKWNGQETSLVREMVDGKLILTLTHGTAVCTRTYEKQAHHHHHH
B2: FAB protein (FABP from bovine hearts) with N-terminal 15-amino-acid peptide motif 4 and C-terminal His-tag of 6 histidines (other)
chain: B1 chain with L6I, D7A, E8D, R9P, V10A, P11V, L12H, V13F, E14T
B3: FAB protein (FABP from bovine hearts) with N-terminal 15-amino-acid peptide motif 1 and C-terminal His-tag of 6 histidines (other)
chain: DLYDIDRNWVGHPQGFVGTWKLVDSKNFDDYMKSLGVGFATRQVGNMTKPTTIIEVNGDTVIIKTQSTFKNTEISFKLGVEFDETTADDRKVKSIVTLDGGKLVHVQKWNGQETSLVREMVDGKLILTLTHGTAVCTRTYEKQAHHHHHH

Substitutions are numbered along the chain they refer to.

Here are results for three molecules from patent US8076452 (dated 2011).

T1 sequence (P22629 37-163 limits assumed): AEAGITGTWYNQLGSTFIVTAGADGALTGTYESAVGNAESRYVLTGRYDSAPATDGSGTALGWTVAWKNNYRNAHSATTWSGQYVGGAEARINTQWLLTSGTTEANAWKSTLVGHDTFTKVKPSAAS

The experiment has as its target T1, streptavidin (UniProt P22629 37-163).
T1 construct: also called peroxidase-labeled streptavidin; streptavidin-Sepharose
Description: SPR (BiacoreX, NTA chip), fusion protein immobilised, streptavidin injected. As for the experimental part:
The measurements of the dissociation constant were performed with a BiacoreX system and the sensor chip NTA of the company Biacore. The proteins generated during the expression described in Example 1 were investigated, i.e. FAB proteins, which had at the N terminus a peptide consisting of 15 amino acids as fusion partners and at the C terminus 6 histidines, which were needed for the immobilization on the sensor chip. The binding affinity of the proteins generated during the expression to streptavidin described in Example 1 was measured in the Biacore device according to manufacturer's instructions. The protein to be investigated is on the sensor chip, and a streptavidin solution having a defined concentration is sprayed in. The interaction (binding) between the two molecules is measured by the device and quantified as so-called resonance units (RU). For the measurement, the buffers specified by the manufacturer were used.
In general terms: SPR reads the build-up and loss of mass on a sensor chip optically.
Take B1: the “RU at 500 nM streptavidin” value came to 786 RU and the “RU at 2 µM streptavidin” value stood at 946 RU.
For the molecule B2, the “RU at 500 nM streptavidin” value stood at 478 RU and the “RU at 2 µM streptavidin” value is 644 RU.
In the same order, the values of B3 are 62 RU and 233 RU.
